From the supplement of paper PMC10126150
± gives the standard deviation of the averaged measurements.

Test system: ATP
Assay: switch fluorescence ratio, 500 uM ATP over buffer (Cy3 cluster intensity, sum of 5 cycles each) (fold (ratio)); higher = stronger signal-on switching upon ATP binding; sequences stand for … in TCGTCGGCAGCGTCAGATGTGTATAAGAGACAGTTTTTTTTTTTTTTTTTTTTTTTTT…TC
Conditions: aptamer strand: ATP DNA aptamer (quencher-CACCTGGGGGAGTATTGCGGAGGAAGG + anchor), 100 nM annealed; ATP concentration: 500 uM
Method in brief: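 For every switch-domain sequence, the fluorescence ratio is the mean of per-cluster values, each being summed target-cycle Cy3 intensity over summed buffer-cycle Cy3 intensity. Clusters outside 100-1000 RFU were excluded. On a modified Illumina MiSeq flow-cell, the Cy3-labelled switching-strand clusters were annealed to 100 nM quencher-labelled ATP aptamer, imaged in selection buffer and then after 15 min with 500 uM ATP at 22 °C. Five such cycles were run, with NaOH stripping and re-annealing between them.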
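Further: ATP exposure 15 min at 22 °C before imaging.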

GGGGAATGGA
switch fluorescence ratio: 0.982 ± 0.028

AGAAACGGGG
switch fluorescence ratio: 1.08 ± 0.15

TTCAGAGCGT
switch fluorescence ratio: 0.994 ± 0.018

AGCGGCTCGC
switch fluorescence ratio: 1.007 ± 0.0047

TGTTGTTAAA
switch fluorescence ratio: 0.982 ± 0.012

GGTTTTATGC
switch fluorescence ratio: 0.985 ± 0.0053

AGACGGGATT
switch fluorescence ratio: 1.03 ± 0.021

TTGGGGGGAA
switch fluorescence ratio: 1.01 ± 0.025

GGTGTAATGG
switch fluorescence ratio: 1.04 ± 0.04

CCTGATCACC
switch fluorescence ratio: 1.063 ± 0.0098

GTGGCGAAGG
switch fluorescence ratio: 0.993 ± 0.014

GCAGAGTCGT
switch fluorescence ratio: 0.999 ± 0.037

ATCATTATTG
switch fluorescence ratio: 1 ± 0.013

CAGTGGTCGT
switch fluorescence ratio: 0.999 ± 0.011

GAAAATGTTT
switch fluorescence ratio: 1.0053 ± 2.1e-05

TTGGGATGCC
switch fluorescence ratio: 1.08 ± 0.17

GGAGGGGCGG
switch fluorescence ratio: 1.01 ± 0.043

GTGAGGCGGG
switch fluorescence ratio: 1.009 ± 0.0024

AAAGTTCGGG
switch fluorescence ratio: 0.982 ± 0.033

GCTACAGCTT
switch fluorescence ratio: 1.02 ± 0.015

GTTGACGTTG
switch fluorescence ratio: 0.991 ± 0.054

CGGCGTGGGG
switch fluorescence ratio: 1.03 ± 0.027

AGTTTTCCAT
switch fluorescence ratio: 1.0004 ± 0.00055

AAGTCGCGTT
switch fluorescence ratio: 0.991 ± 0.0024

AGGGCCGTAT
switch fluorescence ratio: 1.04 ± 0.056

AGTCGGTGCA
switch fluorescence ratio: 0.9855 ± 0.0013

TGATTCCGCA
switch fluorescence ratio: 3.07 ± 0.12

CGGCTGGGTA
switch fluorescence ratio: 1.014 ± 0.0054

GGAGCGGGGT
switch fluorescence ratio: 1.03 ± 0.019

GGATCGGGCG
switch fluorescence ratio: 0.973 ± 0.051

ATGATTGTGG
switch fluorescence ratio: 0.997 ± 0.028

AACTTTAGTA
switch fluorescence ratio: 1 ± 0.016

GTCTGAAGGA
switch fluorescence ratio: 0.9791 ± 0.0055

AGTGCTAGGG
switch fluorescence ratio: 1 ± 0.024

TTTTCTATGG
switch fluorescence ratio: 1 ± 0.082

TTACTGGCT
switch fluorescence ratio: 1 ± 0.059

GGGGGTTCCC
switch fluorescence ratio: 0.9833 ± 0.0017

GGTTAAGCCT
switch fluorescence ratio: 1.05 ± 0.043

CATCATTGGC
switch fluorescence ratio: 0.974 ± 0.092

CAACCGCGTA
switch fluorescence ratio: 2.36 ± 0.1

AAAGAGAATA
switch fluorescence ratio: 0.987 ± 0.036

GTTGGTTTTC
switch fluorescence ratio: 0.99 ± 0.036

GGTAATTGGG
switch fluorescence ratio: 1.19 ± 0.27

GGTGGCCGGT
switch fluorescence ratio: 0.987 ± 0.021

TGGTCGTCCG
switch fluorescence ratio: 0.971 ± 0.057

CGGGATATCG
switch fluorescence ratio: 1.01 ± 0.029

TTTGCATGAA
switch fluorescence ratio: 0.992 ± 0.011

AAAATAAGGA
switch fluorescence ratio: 0.986 ± 0.018

TTTTTAGGGA
switch fluorescence ratio: 0.99 ± 0.029

GGGTGGGTTG
switch fluorescence ratio: 1 ± 0.039

GAGGTGCGGT
switch fluorescence ratio: 0.975 ± 0.049

TCGCGAAATT
switch fluorescence ratio: 0.9763 ± 0.0042

GTTCTAAGTA
switch fluorescence ratio: 0.957 ± 0.0039

AAAACCTCAC
switch fluorescence ratio: 1.56 ± 0.13

TAGGGCACCC
switch fluorescence ratio: 0.988 ± 0.058

GGGTTAGACT
switch fluorescence ratio: 1.07 ± 0.086

GCCGCAGGGG
switch fluorescence ratio: 2.61 ± 1.3

AGTGAGGTGC
switch fluorescence ratio: 1.02 ± 0.01

GAGTAGGGGA
switch fluorescence ratio: 0.97 ± 0.055

CAGCTGAGGC
switch fluorescence ratio: 0.976 ± 0.038

GGGGAGTATT
switch fluorescence ratio: 0.971 ± 0.015

CGGGATAGAT
switch fluorescence ratio: 1 ± 0.039

TTATTGTTAC
switch fluorescence ratio: 1.03 ± 0.036

TGACGTCGTA
switch fluorescence ratio: 0.9689 ± 0.0094

AAGGATAATG
switch fluorescence ratio: 0.976 ± 0.019

GTTGATCAT
switch fluorescence ratio: 0.983 ± 0.015

GGGGTTATCA
switch fluorescence ratio: 0.99 ± 0.014

ATCAGCGTTT
switch fluorescence ratio: 1.012 ± 0.0092

TTTATTTGCC
switch fluorescence ratio: 1.05 ± 0.042

GATGGGAAAA
switch fluorescence ratio: 1.01 ± 0.021

TGGGGTTATC
switch fluorescence ratio: 0.9931 ± 0.0079

TATGATTTGG
switch fluorescence ratio: 0.976 ± 0.031

CAGCGGCGGA
switch fluorescence ratio: 0.981 ± 0.029

GCTTAGTGTC
switch fluorescence ratio: 0.975 ± 0.043

TAAAGGACGG
switch fluorescence ratio: 1.01 ± 0.038

GTCTCAAGGG
switch fluorescence ratio: 0.981 ± 0.039

TGTCCACTAC
switch fluorescence ratio: 2.78 ± 2.3

GTAGGGGGGG
switch fluorescence ratio: 0.999 ± 0.051

GGGGCAGTCA
switch fluorescence ratio: 0.9785 ± 0.0031

GGGGTAGTAG
switch fluorescence ratio: 0.979 ± 0.013

GCCTGGAAAT
switch fluorescence ratio: 1 ± 0.021

CAGGTTGTGC
switch fluorescence ratio: 0.98 ± 0.055

AGTGTGGGCA
switch fluorescence ratio: 0.965 ± 0.026

TACGGGGGTA
switch fluorescence ratio: 1.02 ± 0.036

CTCTGTGGTG
switch fluorescence ratio: 1.02 ± 0.048

AGCGGAGAGG
switch fluorescence ratio: 1.006 ± 0.0096

TAGGAGGGA
switch fluorescence ratio: 1 ± 0.024

ATAAGTTAAG
switch fluorescence ratio: 0.999 ± 0.013

TCAGTGGATG
switch fluorescence ratio: 0.9794 ± 0.0032

ACACGGGGTG
switch fluorescence ratio: 1.018 ± 0.0018

AGGATTAAGG
switch fluorescence ratio: 0.992 ± 0.018

AGTTAAAGGT
switch fluorescence ratio: 0.992 ± 0.023

ATAAGTGCAA
switch fluorescence ratio: 1.06 ± 0.011

TGAAATATTG
switch fluorescence ratio: 0.996 ± 0.022

AAAATTTACG
switch fluorescence ratio: 1.1 ± 0.16

GCCACATTTT
switch fluorescence ratio: 0.945 ± 0.01

TGGGAGGCGT
switch fluorescence ratio: 0.992 ± 0.02

TGATGGTTCA
switch fluorescence ratio: 0.941 ± 0.077

CTATTACGTC
switch fluorescence ratio: 0.984 ± 0.045

TGATAAATTT
switch fluorescence ratio: 1.01 ± 0.023
